The labels stand for the following.
B1: N^ε29-[(4S)-4-carboxy-4-[[(4S)-4-carboxy-4-[[2-[2-[2-[[2-[2-[2-[[(4S)-4-carboxy-4-(17-carboxyheptadecanoylamino)butanoyl]amino]ethoxy]ethoxy]acetyl]amino]ethoxy … (peptide)
chain: H[Aib]QGTFTSDYSKYLESRRAQDFVAWLISK([γGlu-γGlu-AEEA-AEEA-γGlu-C18 diacid])-NH2
modifications: N-terminus assumed
SMILES: CC[C@H](C)[C@H](NC(=O)[C@H](CC(C)C)NC(=O)[C@H](Cc1c[nH]c2ccccc12)NC(=O)[C@H](C)NC(=O)[C@@H](NC(=O)[C@H](Cc1ccccc1)NC(=O)[C@H](CC(=O)O)NC(=O)[C@H](CCC(N)=O)NC(=O)[C@H](C)NC(=O)[C@H](CCCNC(=N)N)NC(=O)[C@H](CCCNC(=N)N)NC(=O)[C@H](CO)NC(=O)[C@H](CCC(=O)O)NC(=O)[C@H](CC(C)C)NC(=O)[C@H](Cc1ccc(O)cc1)NC(=O)[C@H](CCCCN)NC(=O)[C@H](CO)NC(=O)[C@H](Cc1ccc(O)cc1)NC(=O)[C@H](CC(=O)O)NC(=O)[C@H](CO)NC(=O)[C@@H](NC(=O)[C@H](Cc1ccccc1)NC(=O)[C@@H](NC(=O)CNC(=O)[C@H](CCC(N)=O)NC(=O)C(C)(C)NC(=O)[C@@H](N)Cc1c[nH]cn1)[C@@H](C)O)[C@@H](C)O)C(C)C)C(=O)N[C@@H](CO)C(=O)N[C@@H](CCCCNC(=O)CC[C@H](NC(=O)CC[C@H](NC(=O)COCCOCCNC(=O)COCCOCCNC(=O)CC[C@H](NC(=O)CCCCCCCCCCCCCCCCC(=O)O)C(=O)O)C(=O)O)C(=O)O)C(N)=O
B2: N^ε29-[(4S)-4-carboxy-4-[[(4S)-4-carboxy-4-[[2-[2-[2-[[2-[2-[2-[[(4S)-4-carboxy-4-(17-carboxyheptadecanoylamino)butanoyl]amino]ethoxy]ethoxy]acetyl]amino]ethoxy … (peptide)
chain: H[Aib]QGTFTSDLSKYLDLRRARDFVQWLISK([γGlu-γGlu-AEEA-AEEA-γGlu-C18 diacid])-NH2
modifications: N-terminus assumed
SMILES: CC[C@H](C)[C@H](NC(=O)[C@H](CC(C)C)NC(=O)[C@H](Cc1c[nH]c2ccccc12)NC(=O)[C@H](CCC(N)=O)NC(=O)[C@@H](NC(=O)[C@H](Cc1ccccc1)NC(=O)[C@H](CC(=O)O)NC(=O)[C@H](CCCNC(=N)N)NC(=O)[C@H](C)NC(=O)[C@H](CCCNC(=N)N)NC(=O)[C@H](CCCNC(=N)N)NC(=O)[C@H](CC(C)C)NC(=O)[C@H](CC(=O)O)NC(=O)[C@H](CC(C)C)NC(=O)[C@H](Cc1ccc(O)cc1)NC(=O)[C@H](CCCCN)NC(=O)[C@H](CO)NC(=O)[C@H](CC(C)C)NC(=O)[C@H](CC(=O)O)NC(=O)[C@H](CO)NC(=O)[C@@H](NC(=O)[C@H](Cc1ccccc1)NC(=O)[C@@H](NC(=O)CNC(=O)[C@H](CCC(N)=O)NC(=O)C(C)(C)NC(=O)[C@@H](N)Cc1c[nH]cn1)[C@@H](C)O)[C@@H](C)O)C(C)C)C(=O)N[C@@H](CO)C(=O)N[C@@H](CCCCNC(=O)CC[C@H](NC(=O)CC[C@H](NC(=O)COCCOCCNC(=O)COCCOCCNC(=O)CC[C@H](NC(=O)CCCCCCCCCCCCCCCCC(=O)O)C(=O)O)C(=O)O)C(=O)O)C(N)=O
B3: N^ε29-[(4S)-4-carboxy-4-[[(4S)-4-carboxy-4-[[2-[2-[2-[[2-[2-[2-[[(4S)-4-carboxy-4-(17-carboxyheptadecanoylamino)butanoyl]amino]ethoxy]ethoxy]acetyl]amino]ethoxy … (peptide)
chain: H[Aib]QGTFTSDLSKYLDLRRARDFVAWLISK([γGlu-γGlu-AEEA-AEEA-γGlu-C18 diacid])-NH2
modifications: N-terminus assumed
SMILES: CC[C@H](C)[C@H](NC(=O)[C@H](CC(C)C)NC(=O)[C@H](Cc1c[nH]c2ccccc12)NC(=O)[C@H](C)NC(=O)[C@@H](NC(=O)[C@H](Cc1ccccc1)NC(=O)[C@H](CC(=O)O)NC(=O)[C@H](CCCNC(=N)N)NC(=O)[C@H](C)NC(=O)[C@H](CCCNC(=N)N)NC(=O)[C@H](CCCNC(=N)N)NC(=O)[C@H](CC(C)C)NC(=O)[C@H](CC(=O)O)NC(=O)[C@H](CC(C)C)NC(=O)[C@H](Cc1ccc(O)cc1)NC(=O)[C@H](CCCCN)NC(=O)[C@H](CO)NC(=O)[C@H](CC(C)C)NC(=O)[C@H](CC(=O)O)NC(=O)[C@H](CO)NC(=O)[C@@H](NC(=O)[C@H](Cc1ccccc1)NC(=O)[C@@H](NC(=O)CNC(=O)[C@H](CCC(N)=O)NC(=O)C(C)(C)NC(=O)[C@@H](N)Cc1c[nH]cn1)[C@@H](C)O)[C@@H](C)O)C(C)C)C(=O)N[C@@H](CO)C(=O)N[C@@H](CCCCNC(=O)CC[C@H](NC(=O)CC[C@H](NC(=O)COCCOCCNC(=O)COCCOCCNC(=O)CC[C@H](NC(=O)CCCCCCCCCCCCCCCCC(=O)O)C(=O)O)C(=O)O)C(=O)O)C(N)=O
B4: N^ε29-[(4S)-4-carboxy-4-[[(4S)-4-carboxy-4-[[2-[2-[2-[[2-[2-[2-[[(4S)-4-carboxy-4-(17-carboxyheptadecanoylamino)butanoyl]amino]ethoxy]ethoxy]acetyl]amino]ethoxy … (peptide)
peptide: H[Aib]QGTFTSDLSKYLDLRRAREFVQWLINK([γGlu-γGlu-AEEA-AEEA-γGlu-C18 diacid])-NH2
modifications: N-terminus assumed
SMILES: CC[C@H](C)[C@H](NC(=O)[C@H](CC(C)C)NC(=O)[C@H](Cc1c[nH]c2ccccc12)NC(=O)[C@H](CCC(N)=O)NC(=O)[C@@H](NC(=O)[C@H](Cc1ccccc1)NC(=O)[C@H](CCC(=O)O)NC(=O)[C@H](CCCNC(=N)N)NC(=O)[C@H](C)NC(=O)[C@H](CCCNC(=N)N)NC(=O)[C@H](CCCNC(=N)N)NC(=O)[C@H](CC(C)C)NC(=O)[C@H](CC(=O)O)NC(=O)[C@H](CC(C)C)NC(=O)[C@H](Cc1ccc(O)cc1)NC(=O)[C@H](CCCCN)NC(=O)[C@H](CO)NC(=O)[C@H](CC(C)C)NC(=O)[C@H](CC(=O)O)NC(=O)[C@H](CO)NC(=O)[C@@H](NC(=O)[C@H](Cc1ccccc1)NC(=O)[C@@H](NC(=O)CNC(=O)[C@H](CCC(N)=O)NC(=O)C(C)(C)NC(=O)[C@@H](N)Cc1c[nH]cn1)[C@@H](C)O)[C@@H](C)O)C(C)C)C(=O)N[C@@H](CC(N)=O)C(=O)N[C@@H](CCCCNC(=O)CC[C@H](NC(=O)CC[C@H](NC(=O)COCCOCCNC(=O)COCCOCCNC(=O)CC[C@H](NC(=O)CCCCCCCCCCCCCCCCC(=O)O)C(=O)O)C(=O)O)C(=O)O)C(N)=O
notes: also called Chem. 22; Chem 22
B5: N^ε29-[(4S)-4-carboxy-4-[[(4S)-4-carboxy-4-[[2-[2-[2-[[2-[2-[2-[[(4S)-4-carboxy-4-(17-carboxyheptadecanoylamino)butanoyl]amino]ethoxy]ethoxy]acetyl]amino]ethoxy … (peptide)
chain: H[Aib]QGTFTSDLSKYLDLRRARDFVQWLINK([γGlu-γGlu-AEEA-AEEA-γGlu-C18 diacid])-NH2
modifications: N-terminus assumed
SMILES: CC[C@H](C)[C@H](NC(=O)[C@H](CC(C)C)NC(=O)[C@H](Cc1c[nH]c2ccccc12)NC(=O)[C@H](CCC(N)=O)NC(=O)[C@@H](NC(=O)[C@H](Cc1ccccc1)NC(=O)[C@H](CC(=O)O)NC(=O)[C@H](CCCNC(=N)N)NC(=O)[C@H](C)NC(=O)[C@H](CCCNC(=N)N)NC(=O)[C@H](CCCNC(=N)N)NC(=O)[C@H](CC(C)C)NC(=O)[C@H](CC(=O)O)NC(=O)[C@H](CC(C)C)NC(=O)[C@H](Cc1ccc(O)cc1)NC(=O)[C@H](CCCCN)NC(=O)[C@H](CO)NC(=O)[C@H](CC(C)C)NC(=O)[C@H](CC(=O)O)NC(=O)[C@H](CO)NC(=O)[C@@H](NC(=O)[C@H](Cc1ccccc1)NC(=O)[C@@H](NC(=O)CNC(=O)[C@H](CCC(N)=O)NC(=O)C(C)(C)NC(=O)[C@@H](N)Cc1c[nH]cn1)[C@@H](C)O)[C@@H](C)O)C(C)C)C(=O)N[C@@H](CC(N)=O)C(=O)N[C@@H](CCCCNC(=O)CC[C@H](NC(=O)CC[C@H](NC(=O)COCCOCCNC(=O)COCCOCCNC(=O)CC[C@H](NC(=O)CCCCCCCCCCCCCCCCC(=O)O)C(=O)O)C(=O)O)C(=O)O)C(N)=O
B6: N^ε29-[(4S)-4-carboxy-4-[[(4S)-4-carboxy-4-[[2-[2-[2-[[2-[2-[2-[[(4S)-4-carboxy-4-(17-carboxyheptadecanoylamino)butanoyl]amino]ethoxy]ethoxy]acetyl]amino]ethoxy … (peptide)
chain: H[Aib]QGTFTSDLSKYLDLRRAREFVQWLISK([γGlu-γGlu-AEEA-AEEA-γGlu-C18 diacid])-NH2
modifications: N-terminus assumed
SMILES: CC[C@H](C)[C@H](NC(=O)[C@H](CC(C)C)NC(=O)[C@H](Cc1c[nH]c2ccccc12)NC(=O)[C@H](CCC(N)=O)NC(=O)[C@@H](NC(=O)[C@H](Cc1ccccc1)NC(=O)[C@H](CCC(=O)O)NC(=O)[C@H](CCCNC(=N)N)NC(=O)[C@H](C)NC(=O)[C@H](CCCNC(=N)N)NC(=O)[C@H](CCCNC(=N)N)NC(=O)[C@H](CC(C)C)NC(=O)[C@H](CC(=O)O)NC(=O)[C@H](CC(C)C)NC(=O)[C@H](Cc1ccc(O)cc1)NC(=O)[C@H](CCCCN)NC(=O)[C@H](CO)NC(=O)[C@H](CC(C)C)NC(=O)[C@H](CC(=O)O)NC(=O)[C@H](CO)NC(=O)[C@@H](NC(=O)[C@H](Cc1ccccc1)NC(=O)[C@@H](NC(=O)CNC(=O)[C@H](CCC(N)=O)NC(=O)C(C)(C)NC(=O)[C@@H](N)Cc1c[nH]cn1)[C@@H](C)O)[C@@H](C)O)C(C)C)C(=O)N[C@@H](CO)C(=O)N[C@@H](CCCCNC(=O)CC[C@H](NC(=O)CC[C@H](NC(=O)COCCOCCNC(=O)COCCOCCNC(=O)CC[C@H](NC(=O)CCCCCCCCCCCCCCCCC(=O)O)C(=O)O)C(=O)O)C(=O)O)C(N)=O

Starred links: 1 amine or outer side, 2 acyl side, 3 side chain; linkers in the order of their positions; H or OH if unused. Non-standard residues stand in square brackets, D forms with d. Groups on a side chain read outwards from the residue. No end group written: not given here. *: point of attachment. C18 diacid = O=C(O)CCCCCCCCCCCCCCCCC(=O)*; γGlu = O=C(O)[C@H](CCC(=O)[*:2])N[*:1]; Ac4c = NC1(C(=O)O)CCC1; AEEA = NCCOCCOCC(=O)O; Aib = CC(C)(N)C(=O)O

T2 sequence (P47871 26-477): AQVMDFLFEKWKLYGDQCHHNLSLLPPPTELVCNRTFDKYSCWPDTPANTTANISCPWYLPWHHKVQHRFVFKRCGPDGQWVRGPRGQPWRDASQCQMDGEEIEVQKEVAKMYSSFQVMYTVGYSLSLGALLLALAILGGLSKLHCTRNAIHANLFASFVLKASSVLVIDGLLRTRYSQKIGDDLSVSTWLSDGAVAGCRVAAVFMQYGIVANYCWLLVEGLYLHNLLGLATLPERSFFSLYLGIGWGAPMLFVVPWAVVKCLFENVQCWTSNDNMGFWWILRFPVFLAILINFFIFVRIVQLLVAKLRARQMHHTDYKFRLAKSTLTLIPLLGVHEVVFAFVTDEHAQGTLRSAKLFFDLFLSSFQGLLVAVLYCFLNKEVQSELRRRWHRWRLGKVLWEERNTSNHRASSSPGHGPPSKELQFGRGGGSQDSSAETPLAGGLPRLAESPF

The first assay deals with T1, human GLP-1 receptor (human, UniProt P43220 24-463). The assay can be described thus: cell-based or functional assay.
With H[Ac4c]QGTFTSDLSKYLESRRAREFVQWLIK([Gly-Ser-Glu-Gly-Ser-γGlu-γGlu-C18 diacid])T-NH2 (also called Chem. 16; Chem 16), the “GLP-1R EC50 (pM) [Assay (I)(a)], CRE luciferase reporter, BHK cells” value is 5 pM.

Another assay concerns the target T2, human glucagon receptor (human, UniProt P47871 26-477). Kind of assay: cell-based or functional assay.
H[Ac4c]QGTFTSDLSKYLESRRAREFVQWLIK([Gly-Ser-Glu-Gly-Ser-γGlu-γGlu-C18 diacid])T-NH2 (also called Chem. 16; Chem 16): the “GlucagonR EC50 (pM), [Assay (I)(b)], CRE luciferase reporter, BHK cells” value came out at 13 pM.

The next assay concerns the target T1, human GLP-1 receptor. Kind of assay: displacement of [125I]-GLP-1-(7-36)NH2 from BHK membranes with human GLP-1R, SPA, no serum albumin. On the technique in general: Loss of bound radioactivity is the signal in a displacement assay; it reports binding, not function.
In the case of B1, the IC50 (in general, the midpoint of a concentration-inhibition curve) was determined as 2.2 nM.
On to B2, for which the IC50 came out at 1 nM.
Regarding B3, the IC50 is 1.1 nM.
Consider B4, for which the concentration for half-maximal inhibition (IC50) is 0.3 nM.
The molecule B5 registered an IC50 of 0.3 nM.
B6: the concentration for half-maximal inhibition (IC50) was 0.9 nM.

A further assay has as its target T2, human glucagon receptor. The assay can be described thus: displacement of [125I]-glucagon from BHK membranes with human glucagon receptor, SPA, no serum albumin.
In turn, B1 showed an IC50 of 60 nM.
Take B2: the 50% inhibitory concentration (IC50) came to 64.7 nM.
The same measure, in the same setting: to B3 belongs 144 nM; to H[Ac4c]QGTFTSDLSKYLESRRAREFVQWLIK([Gly-Ser-Glu-Gly-Ser-γGlu-γGlu-C18 diacid])T-NH2 (also called Chem. 16; Chem 16), 2.7 nM.
B4: the half-inhibitory concentration (IC50) was 67.3 nM.
The same measure, in the same setting: the value for B5 was 83.2 nM; that for B6 was 71.2 nM.

For the origin of these results see patent US20170101454A1 (Novo Nordisk, published 2017).
